Measured values published in publication PMC8692152, “Cellular Id1 inhibits hepatitis B virus transcription by interacting with the novel covalently closed circular DNA-binding protein E2F4” (International Journal of Biological Sciences, 2022).

Molecular target: the molecule itself
Test: SEC; Superdex 75, 50 mM Tris-HCl pH 8.0, 300 mM NaCl; calibrated with molecular mass standards

B1: E2F4_(1-88) (domain or fragment)
chain: not shown
notes: The section on ITC sample preparation describes an E2F4_(1-88) protein purified on a GST column and cut with 3C protease; also called pET28-E2F4_(1-88)
  stoichiometry N: 2
